The values that follow come from publication PMC7517697.

The test system of this data set is T1, CATH-B1 (mature cathelicidin-B1 peptide) (chicken).
T1 sequence: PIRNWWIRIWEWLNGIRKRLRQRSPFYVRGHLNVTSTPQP
Description: ITC. The note with it: 75% PBS, 37 °C, dH -65.5 kJ/mol, dS -73.5 J/mol as printed, ITC: 75% PBS (PBS/H2O 3:1 v/v), 200 µM CATH-B1 in syringe titrated in 1 µL injections at 300 s intervals into ODN-2006 (25 nM as printed), pH not stated.

ODN-2006: the Kd is 64 nM.

The term Kd denotes the constant that tells how readily two partners part at equilibrium. Low readings indicate higher affinity, high ones lower affinity.
